Measurements from article PMC12797046.

What was measured:
[1] = cycloheximide chase, degradation rate; settings: glycan lost; control: LATS1-WT
[2] = HA-Ub co-transfection, MG-132, anti-MYC IP, blot; settings: glycan lost; control: LATS1-WT
[3] = Nub-Gal4 overexpression, wing area; settings: glycan lost; control: Nub > LATS1, standard medium
[4] = Nub-Gal4 overexpression, wing area, no-glucose medium; settings: glycan lost; control: Nub > LATS1, glucose-free medium

| Protein | degradation_or_half_life [1] | other: ubiquitination [2] | other: Drosophila wing size [3] | other: Drosophila wing size [4] |
| --- | --- | --- | --- | --- |
| LATS1: 4A (protein) parent chain: MKRSEKPEGYRQMRPKTFPASNYTVSSRQMLQEIRESLRNLSKPSDAAKAEHNMSKMSTEDPRQVRNPPKFGTHHKALQEIRNSLLPFANETNSSRSTSEVNPQMLQDLQAAGFDEDMVIQALQKTNNRSIEAAIEFISKMSYQDPRREQMAAAAARPINASMKPGNVQQSVNRKQSWKGSKESLVPQRHGPPLGESVAYHSESPNSQTDVGRPLSGSGISAFVQAHPSNGQRVNPPPPPQVRSVTPPPPPRGQTPPPRGTTPPPPSWEPNSQTKRYSGNMEYVISRISPVPPGAWQEGYPPPPLNTSPMNPPNQGQRGISSVPVGRQPIIMQSSSKFNFPSGRPGMQNGTGQTDFMIHQNVVPAGTVNRQPPPPYPLTAANGQSPSALQTGGSAAPSSYTNGSIPQSMMVPNRNSHNMELYNISVPGLQTNWPQSSSAPAQSSPSSGHEIPTWQPNIPVRSNSFNNPLGNRASHSANSQPSATTVTAITPAPIQQPVKSMRVLKPELQTALAPTHPSWIPQPIQTVQPSPFPEGTASNVTVMPPVAEAPNYQGPPPPYPKHLLHQNPSVPPYESISKPSKEDQPSLPKEDESEKSYENVDSGDKEKKQITTSPITVRKNKKDEERRESRIQSYSPQAFKFFMEQHVENVLKSHQQRLHRKKQLENEMMRVGLSQDAQDQMRKMLCQKESNYIRLKRAKMDKSMFVKIKTLGIGAFGEVCLARKVDTKALYATKTLRKKDVLLRNQVAHVKAERDILAEADNEWVVRLYYSFQDKDNLYFVMDYIPGGDMMSLLIRMGIFPESLARFYIAELTCAVESVHKMGFIHRDIKPDNILIDRDGHIKLTDFGLCTGFRWTHDSKYYQSGDHPRQDSMDFSNEWGDPSSCRCGDRLKPLERRAARQHQRCLAHSLVGTPNYIAPEVLLRTGYTQLCDWWSVGVILFEMLVGQPPFLAQTPLETQMKVINWQTSLHIPPQAKLSPEASDLIIKLCRGPEDRLGKNGADEIKAHPFFKTIDFSSDLRQQSASYIPKITHPTDTSNFDPVDPDKLWSDDNEEENVNDTLNGWYKNGKHPEHAFYEFTFRRFFDDNGYPYNYPKPIEYEYINSQGSEQQSDEDDQNTGSEIKNRDLVYV | decreases | decreases |  |  |
| LATS1: LATS1-4A (protein) parent chain: MKRSEKPEGYRQMRPKTFPASNYTVSSRQMLQEIRESLRNLSKPSDAAKAEHNMSKMSTEDPRQVRNPPKFGTHHKALQEIRNSLLPFANETNSSRSTSEVNPQMLQDLQAAGFDEDMVIQALQKTNNRSIEAAIEFISKMSYQDPRREQMAAAAARPINASMKPGNVQQSVNRKQSWKGSKESLVPQRHGPPLGESVAYHSESPNSQTDVGRPLSGSGISAFVQAHPSNGQRVNPPPPPQVRSVTPPPPPRGQTPPPRGTTPPPPSWEPNSQTKRYSGNMEYVISRISPVPPGAWQEGYPPPPLNTSPMNPPNQGQRGISSVPVGRQPIIMQSSSKFNFPSGRPGMQNGTGQTDFMIHQNVVPAGTVNRQPPPPYPLTAANGQSPSALQTGGSAAPSSYTNGSIPQSMMVPNRNSHNMELYNISVPGLQTNWPQSSSAPAQSSPSSGHEIPTWQPNIPVRSNSFNNPLGNRASHSANSQPSATTVTAITPAPIQQPVKSMRVLKPELQTALAPTHPSWIPQPIQTVQPSPFPEGTASNVTVMPPVAEAPNYQGPPPPYPKHLLHQNPSVPPYESISKPSKEDQPSLPKEDESEKSYENVDSGDKEKKQITTSPITVRKNKKDEERRESRIQSYSPQAFKFFMEQHVENVLKSHQQRLHRKKQLENEMMRVGLSQDAQDQMRKMLCQKESNYIRLKRAKMDKSMFVKIKTLGIGAFGEVCLARKVDTKALYATKTLRKKDVLLRNQVAHVKAERDILAEADNEWVVRLYYSFQDKDNLYFVMDYIPGGDMMSLLIRMGIFPESLARFYIAELTCAVESVHKMGFIHRDIKPDNILIDRDGHIKLTDFGLCTGFRWTHDSKYYQSGDHPRQDSMDFSNEWGDPSSCRCGDRLKPLERRAARQHQRCLAHSLVGTPNYIAPEVLLRTGYTQLCDWWSVGVILFEMLVGQPPFLAQTPLETQMKVINWQTSLHIPPQAKLSPEASDLIIKLCRGPEDRLGKNGADEIKAHPFFKTIDFSSDLRQQSASYIPKITHPTDTSNFDPVDPDKLWSDDNEEENVNDTLNGWYKNGKHPEHAFYEFTFRRFFDDNGYPYNYPKPIEYEYINSQGSEQQSDEDDQNTGSEIKNRDLVYV |  |  | decreases | no change |
